Tests used:
[1] = system: DNA templates S5P-tDNAR or T7P-tDNAR; experiment: Synthesis of tRNA^Arg at preparative scale, sequencing gel; assay type: biochemical; conditions: 200 µl reaction, 37° C.
Protocol: FIGS. 11A-11B depict synthesis of tRNA^Arg by Syn5 and T7 RNA polymerase. A) Synthesis of tRNA^Arg at analytical scale by various amounts of Syn5 and T7 RNA polymerase. Using radioactively labeled CTP, the tRNA^Arg and N+1 product (as marked) produced by 22, 67, 200 nM Syn5 and T7 RNA polymerase at 37° C. are shown. […] The DNA encoding E. coli tRNA^ArgACG is directly downstream of a Syn5 or T7 promoter for the cognate RNA polymerase to synthesize run-off tRNA transcript. B) Synthesis of tRNA^Arg at preparative scale by Syn5 and T7 RNA polymerase. The sequencing gel is showing the analysis of the total RNA products by Syn5 and T7 RNAP at 37° C. in a 200 µl reaction. […]
For the results shown in FIG. 11A, reaction mixtures (10 μl) containing 40 mM Tris-HCl pH 8.0, 6 mM MgCl2, 2 mM spermidine, 10 mM DTT, 200 µM[…]P, GTP and UTP, 10 µM [[…]-^32P]CTP, 1.5 U/µl RNaseOUT™ recombinant ribonuclease inhibitor, 0.5 μM DNA templates S5P-tDNAR or T7P-tDNAR, and various amount of Syn5 or T7 RNAP were incubated at 37° C. for 30 min before adding of one unit of DNase I to each reaction mixture and an additional incubation of 15 min at 37° C. […] After electrophoresis, gels were dried and analyzed using a Fuji BAS 1000 Bioimaging Analyzer. […] RNA quantification was based on OD260 measurement using NANOPHOTOMETER (IMPLEN). […]

[2] = Solubility / precipitation of the purified enzyme; assay type: physicochemical; conditions: transcription reaction
Protocol: His-tagged Syn5 RNAP was expressed from a pET24 vector harboring His-tagged Syn5 RNAP gene between the NdeI and NotI sites (Zhu et al. (2013)) and purified by Ni-NTA agarose and gel filtration chromatography. 2 M NaCl was present during the purification procedure and was removed by dialysis as the protein was finally concentrated. E. coli BL21(DE3) cells over-producing the protein were cultured in 2 L LB medium containing 50 µg/ml kanamycin at 37° C. until they reached an OD600 of approximately 1.2. The gene for Syn5 RNAP was induced by the addition of 0.5 mM IPTG at 16° C. and incubation continued for 3 hr. Cells were harvested, resuspended in 50 mM sodium phosphate, pH 8.0, 100 mM NaCl, and lysed by three cycles of freeze-thaw in the presence of 0.5 mg/ml lysozyme. 2 M NaCl was then added to the lysed cells and the cleared lysate was collected by centrifugation. 2 ml Ni-NTA agarose was added to the clear lysate and mixed at 4° C. overnight. The resin was then washed with 30 ml of wash buffer (50 mM sodium phosphate, pH 8.0, 2 M NaCl, and 20 mM imidazole). […] Fractions were analyzed on SDS-PAGE gels and those with Syn5 RNAP over 80% were collected and concentrated with Amicon Ultra-15 Centrifugal Filter Units (Millipore) to 1 ml. […] Fractions were analyzed on SDS-PAGE gels and those with homogenous Syn5 RNAP were pooled. […]

[3] = system: dsDNA template S5PhmttRNAProUGG; experiment: Synthesis of human mt tRNAPro, short RNA, optimized conditions; assay type: biochemical

Molecule | N+1 products in total products [1] | final concentration in the reaction resulting in severe protein precipitation [2] | estimated yield of RNA ([3]; 100 µl transcription reaction) [nmole/100 µl] | enzyme activity ([3]; at 42° C.) | reduction of yield ([3]; final NTP 4 mM instead of 8 mM)
T7 RNAP: RNA polymerase encoded by bacteriophage T7, from New England Biolabs [reference compound] | more than 50% |  |  |  | 
Syn5 RNAP: single subunit DNA-dependent RNA polymerase from marine cyanophage Syn5, amino acid sequence SEQ ID NO:23 (protein, Amino acid sequence of a cyanophage Syn5 RNAP) MSFDLIARQLQRETEAAELARKRLQDARREANERSYASSNIESRKAIATFLDPIAQRIGERLFTLRRGTGAVDAAEVYKHLKNADHHHLALITMKTALDVLGKDPEPQIQQLTTAIGRNIQLELRLTYYAEENPELYKQASRFFHAGTGTRQKATVIKLKFNREGIEWDQWSRVTCHKVGQWLMLAMADVTGWIERATDRTSGGRKTKTRICYSREFLQHRDTILAAAEQLAFCQWPMLCPPIEWSNDHNGGYLSEQIRRVNPLIRKTGPLGTRKQGDIPLAMLNNLQGQAYKVNPEVLDIANHCYESNVTVGKFIRHAPLPVPPSPGEDCTEDQLTAYKRARREAEDFNAQISQKNWRTTEVMYVARKYADEASFWMPASFDYRGRVYFLNTALNPQGTDFDKALLYFAEEGPVNEWWLSFHVATTYGLDKETMVNRVQWARDNHELIDRIASDPVRHTEWHDADEPWCFLAACLEYKACVIDGTKQTSGLPIGIDATCSGLQHLAAMTRCGRTAALVNVTPTDKPADAYKTVAQASLKHLPKEQHEWITRKVTKRPVMCTPYGVTMSSARGYIRDQLVKDGHKEDLRSPGVLNGIVKAIFNEAIPEVIPGPVQVMAWLKRSAGQIIDRGDSTITWTTPSGFEVVQDLKKSKTYEVKTRIMGGARIKLQVGDGFTDEPDRDHHKSALAPNVVHSNDASLLHLTFAFWDKPFTVIHDCVLGRSCDMDQMGSDIRLHFAEMYKADVMQDWADQVGVELPVDLIKNTLDIDSVNQSLYFFS | negligible | over 5 µM | 4 | very low | approximately 20%
